Assay results as given in patent US20160272693A1 (ZEALAND PHARMA A S, published 2016).
*1 amine or outer side, *2 acyl side, *3 side chain or, on linkers, in order; H or OH if unused. Bridges are numbered along the chain shown (N, C = ends). [ ]: non-standard residue; d: D form. The star is where a group is joined. C20 diacid = O=C(O)CCCCCCCCCCCCCCCCCCC(=O)*; γGlu = O=C(O)[C@H](CCC(=O)[*:2])N[*:1]; Hyp = O=C(O)[C@@H]1C[C@@H](O)CN1; NMeI = CC[C@H](C)[C@H](NC)C(=O)O; Sar = CNCC(=O)O

T1: human amylin receptor 3 (hAMYR3), hCTR2 co-expressed with human receptor activity modifying protein 3 (hRAMP3) (human, UniProt P30988 25-474; O60896 24-148)
T1 sequence (looked up) 1: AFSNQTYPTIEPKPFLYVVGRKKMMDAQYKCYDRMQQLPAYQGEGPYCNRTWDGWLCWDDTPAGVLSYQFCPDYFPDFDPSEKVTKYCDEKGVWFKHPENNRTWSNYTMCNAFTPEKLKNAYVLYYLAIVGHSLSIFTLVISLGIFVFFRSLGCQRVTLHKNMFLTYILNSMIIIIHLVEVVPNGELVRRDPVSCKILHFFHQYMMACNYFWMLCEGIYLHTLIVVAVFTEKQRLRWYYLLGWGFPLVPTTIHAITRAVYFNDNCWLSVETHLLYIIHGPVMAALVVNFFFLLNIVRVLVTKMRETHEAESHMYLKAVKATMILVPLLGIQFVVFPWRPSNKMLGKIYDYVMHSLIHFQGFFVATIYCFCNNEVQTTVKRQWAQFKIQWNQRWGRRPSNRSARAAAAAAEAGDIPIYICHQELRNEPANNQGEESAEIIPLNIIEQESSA
T1 sequence (looked up) 2: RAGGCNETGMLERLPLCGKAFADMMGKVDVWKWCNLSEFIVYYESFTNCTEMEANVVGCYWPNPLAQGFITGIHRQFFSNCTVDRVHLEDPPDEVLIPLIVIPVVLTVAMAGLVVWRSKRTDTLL


Each binder was assayed against T1, human amylin receptor 3 (hAMYR3), hCTR2 … (assay: cell-based or functional assay).

Row | Binder | hAMYR3 EC50 (nM); cAMP induction
1 | {C20 diacid}-[γGlu]RCGTATCATERLADFLTRSSF[Sar]A[NMeI]LSSTEVGSFT[Hyp]-NH2 (disulfide 3-8; SMILES CC[C@H](C)[C@@H](C(=O)N[C@@H](CC(C)C)C(=O)N[C@@H](CO)C(=O)N[C@@H](CO)C(=O)N[C@H](C(=O)N[C@@H](CCC(=O)O)C(=O)N[C@H](C(=O)NCC(=O)N[C@@H](CO)C(=O)N[C@@H](Cc1ccccc1)C(=O)N[C@H](C(=O)N1C[C@H](O)C[C@H]1C(N)=O)[C@@H](C)O)C(C)C)[C@@H](C)O)N(C)C(=O)[C@H](C)NC(=O)CN(C)C(=O)[C@H](Cc1ccccc1)NC(=O)[C@H](CO)NC(=O)[C@H](CO)NC(=O)[C@H](CCCNC(=N)N)NC(=O)[C@@H](NC(=O)[C@H](CC(C)C)NC(=O)[C@H](Cc1ccccc1)NC(=O)[C@H](CC(=O)O)NC(=O)[C@H](C)NC(=O)[C@H](CC(C)C)NC(=O)[C@H](CCCNC(=N)N)NC(=O)[C@H](CCC(=O)O)NC(=O)[C@@H](NC(=O)[C@H](C)NC(=O)[C@@H]1CSSC[C@H](NC(=O)[C@H](CCCNC(=N)N)NC(=O)CC[C@H](NC(=O)CCCCCCCCCCCCCCCCCCC(=O)O)C(=O)O)C(=O)NCC(=O)N[C@@H]([C@@H](C)O)C(=O)N[C@@H](C)C(=O)N[C@@H]([C@@H](C)O)C(=O)N1)[C@@H](C)O)[C@@H](C)O) [[19CD]-isoGlu-R-C( )-GTAT-C( )-ATERLADFLTRSSF-Gly(Me)-A-Ile(Me)-LSSTEVGSFT-Hyp-NH2 (Compd. 42)] | 0.34 nM
2 | {C20 diacid}-[γGlu]RCGTATCATERLAHFLERSSF[Sar]A[NMeI]LSSTEVGSSTP-NH2 (disulfide 3-8; SMILES CC[C@H](C)[C@@H](C(=O)N[C@@H](CC(C)C)C(=O)N[C@@H](CO)C(=O)N[C@@H](CO)C(=O)N[C@H](C(=O)N[C@@H](CCC(=O)O)C(=O)N[C@H](C(=O)NCC(=O)N[C@@H](CO)C(=O)N[C@@H](CO)C(=O)N[C@H](C(=O)N1CCC[C@H]1C(N)=O)[C@@H](C)O)C(C)C)[C@@H](C)O)N(C)C(=O)[C@H](C)NC(=O)CN(C)C(=O)[C@H](Cc1ccccc1)NC(=O)[C@H](CO)NC(=O)[C@H](CO)NC(=O)[C@H](CCCNC(=N)N)NC(=O)[C@H](CCC(=O)O)NC(=O)[C@H](CC(C)C)NC(=O)[C@H](Cc1ccccc1)NC(=O)[C@H](Cc1c[nH]cn1)NC(=O)[C@H](C)NC(=O)[C@H](CC(C)C)NC(=O)[C@H](CCCNC(=N)N)NC(=O)[C@H](CCC(=O)O)NC(=O)[C@@H](NC(=O)[C@H](C)NC(=O)[C@@H]1CSSC[C@H](NC(=O)[C@H](CCCNC(=N)N)NC(=O)CC[C@H](NC(=O)CCCCCCCCCCCCCCCCCCC(=O)O)C(=O)O)C(=O)NCC(=O)N[C@@H]([C@@H](C)O)C(=O)N[C@@H](C)C(=O)N[C@@H]([C@@H](C)O)C(=O)N1)[C@@H](C)O) [[19CD]-isoGlu-R-C( )-GTAT-C( )-ATERLAHFLERSSF-Gly(Me)-A-Ile(Me)-LSSTEVGSSTP-NH2 (Compd. 36)] | 0.36 nM
3 | {C20 diacid}-[γGlu]RCGTATCATERLADFLTRSSF[Sar]A[NMeI]LSSTEVGSST[Hyp]-NH2 (disulfide 3-8; SMILES CC[C@H](C)[C@@H](C(=O)N[C@@H](CC(C)C)C(=O)N[C@@H](CO)C(=O)N[C@@H](CO)C(=O)N[C@H](C(=O)N[C@@H](CCC(=O)O)C(=O)N[C@H](C(=O)NCC(=O)N[C@@H](CO)C(=O)N[C@@H](CO)C(=O)N[C@H](C(=O)N1C[C@H](O)C[C@H]1C(N)=O)[C@@H](C)O)C(C)C)[C@@H](C)O)N(C)C(=O)[C@H](C)NC(=O)CN(C)C(=O)[C@H](Cc1ccccc1)NC(=O)[C@H](CO)NC(=O)[C@H](CO)NC(=O)[C@H](CCCNC(=N)N)NC(=O)[C@@H](NC(=O)[C@H](CC(C)C)NC(=O)[C@H](Cc1ccccc1)NC(=O)[C@H](CC(=O)O)NC(=O)[C@H](C)NC(=O)[C@H](CC(C)C)NC(=O)[C@H](CCCNC(=N)N)NC(=O)[C@H](CCC(=O)O)NC(=O)[C@@H](NC(=O)[C@H](C)NC(=O)[C@@H]1CSSC[C@H](NC(=O)[C@H](CCCNC(=N)N)NC(=O)CC[C@H](NC(=O)CCCCCCCCCCCCCCCCCCC(=O)O)C(=O)O)C(=O)NCC(=O)N[C@@H]([C@@H](C)O)C(=O)N[C@@H](C)C(=O)N[C@@H]([C@@H](C)O)C(=O)N1)[C@@H](C)O)[C@@H](C)O) [[19CD]-isoGlu-R-C( )-GTAT-C( )-ATERLADFLTRSSF-Gly(Me)-A-Ile(Me)-LSSTEVGSST-Hyp-NH2 (Compd. 41)] | 0.34 nM

Other lines, results leading:

Row | hAMYR3 EC50 (nM); cAMP induction | Binder
4 | 0.07 nM | {C20 diacid}-[γGlu]RCGTATCATERLAHFLHRSSF[Sar]A[NMeI]LSSTEVGSSTP-NH2 (disulfide 3-8; SMILES CC[C@H](C)[C@@H](C(=O)N[C@@H](CC(C)C)C(=O)N[C@@H](CO)C(=O)N[C@@H](CO)C(=O)N[C@H](C(=O)N[C@@H](CCC(=O)O)C(=O)N[C@H](C(=O)NCC(=O)N[C@@H](CO)C(=O)N[C@@H](CO)C(=O)N[C@H](C(=O)N1CCC[C@H]1C(N)=O)[C@@H](C)O)C(C)C)[C@@H](C)O)N(C)C(=O)[C@H](C)NC(=O)CN(C)C(=O)[C@H](Cc1ccccc1)NC(=O)[C@H](CO)NC(=O)[C@H](CO)NC(=O)[C@H](CCCNC(=N)N)NC(=O)[C@H](Cc1c[nH]cn1)NC(=O)[C@H](CC(C)C)NC(=O)[C@H](Cc1ccccc1)NC(=O)[C@H](Cc1c[nH]cn1)NC(=O)[C@H](C)NC(=O)[C@H](CC(C)C)NC(=O)[C@H](CCCNC(=N)N)NC(=O)[C@H](CCC(=O)O)NC(=O)[C@@H](NC(=O)[C@H](C)NC(=O)[C@@H]1CSSC[C@H](NC(=O)[C@H](CCCNC(=N)N)NC(=O)CC[C@H](NC(=O)CCCCCCCCCCCCCCCCCCC(=O)O)C(=O)O)C(=O)NCC(=O)N[C@@H]([C@@H](C)O)C(=O)N[C@@H](C)C(=O)N[C@@H]([C@@H](C)O)C(=O)N1)[C@@H](C)O) [[19CD]-isoGlu-R-C( )-GTAT-C( )-ATERLAHFLHRSSF-Gly(Me)-A-Ile(Me)-LSSTEVGSSTP-NH2 (Compd. 37)]
5 | 0.19 nM | {C20 diacid}-[γGlu]RCGTATCATERLAHFLNRSSF[Sar]A[NMeI]LSSTEVGSFTP-NH2 (disulfide 3-8; SMILES CC[C@H](C)[C@@H](C(=O)N[C@@H](CC(C)C)C(=O)N[C@@H](CO)C(=O)N[C@@H](CO)C(=O)N[C@H](C(=O)N[C@@H](CCC(=O)O)C(=O)N[C@H](C(=O)NCC(=O)N[C@@H](CO)C(=O)N[C@@H](Cc1ccccc1)C(=O)N[C@H](C(=O)N1CCC[C@H]1C(N)=O)[C@@H](C)O)C(C)C)[C@@H](C)O)N(C)C(=O)[C@H](C)NC(=O)CN(C)C(=O)[C@H](Cc1ccccc1)NC(=O)[C@H](CO)NC(=O)[C@H](CO)NC(=O)[C@H](CCCNC(=N)N)NC(=O)[C@H](CC(N)=O)NC(=O)[C@H](CC(C)C)NC(=O)[C@H](Cc1ccccc1)NC(=O)[C@H](Cc1c[nH]cn1)NC(=O)[C@H](C)NC(=O)[C@H](CC(C)C)NC(=O)[C@H](CCCNC(=N)N)NC(=O)[C@H](CCC(=O)O)NC(=O)[C@@H](NC(=O)[C@H](C)NC(=O)[C@@H]1CSSC[C@H](NC(=O)[C@H](CCCNC(=N)N)NC(=O)CC[C@H](NC(=O)CCCCCCCCCCCCCCCCCCC(=O)O)C(=O)O)C(=O)NCC(=O)N[C@@H]([C@@H](C)O)C(=O)N[C@@H](C)C(=O)N[C@@H]([C@@H](C)O)C(=O)N1)[C@@H](C)O) [[19CD]-isoGlu-R-C( )-GTAT-C( )-ATERLAHFLNRSSF-Gly(Me)-A-Ile(Me)-LSSTEVGSFTP-NH2 (Compd. 40)]
6 | 0.22 nM | {C20 diacid}-[γGlu]RCGTATCATERLAHFLQRSSF[Sar]A[NMeI]LSSTEVGSFTP-NH2 (disulfide 3-8; SMILES CC[C@H](C)[C@@H](C(=O)N[C@@H](CC(C)C)C(=O)N[C@@H](CO)C(=O)N[C@@H](CO)C(=O)N[C@H](C(=O)N[C@@H](CCC(=O)O)C(=O)N[C@H](C(=O)NCC(=O)N[C@@H](CO)C(=O)N[C@@H](Cc1ccccc1)C(=O)N[C@H](C(=O)N1CCC[C@H]1C(N)=O)[C@@H](C)O)C(C)C)[C@@H](C)O)N(C)C(=O)[C@H](C)NC(=O)CN(C)C(=O)[C@H](Cc1ccccc1)NC(=O)[C@H](CO)NC(=O)[C@H](CO)NC(=O)[C@H](CCCNC(=N)N)NC(=O)[C@H](CCC(N)=O)NC(=O)[C@H](CC(C)C)NC(=O)[C@H](Cc1ccccc1)NC(=O)[C@H](Cc1c[nH]cn1)NC(=O)[C@H](C)NC(=O)[C@H](CC(C)C)NC(=O)[C@H](CCCNC(=N)N)NC(=O)[C@H](CCC(=O)O)NC(=O)[C@@H](NC(=O)[C@H](C)NC(=O)[C@@H]1CSSC[C@H](NC(=O)[C@H](CCCNC(=N)N)NC(=O)CC[C@H](NC(=O)CCCCCCCCCCCCCCCCCCC(=O)O)C(=O)O)C(=O)NCC(=O)N[C@@H]([C@@H](C)O)C(=O)N[C@@H](C)C(=O)N[C@@H]([C@@H](C)O)C(=O)N1)[C@@H](C)O) [[19CD]-isoGlu-R-C( )-GTAT-C( )-ATERLAHFLQRSSF-Gly(Me)-A-Ile(Me)-LSSTEVGSFTP-NH2 (Compd. 39)]
7 | 0.12 nM | {C20 diacid-γGlu}-RCGTATCATERLAHFLVRSSF[Sar]A[NMeI]LSSTEVGSSTP-NH2 (disulfide 2-7; SMILES CC[C@H](C)[C@@H](C(=O)N[C@@H](CC(C)C)C(=O)N[C@@H](CO)C(=O)N[C@@H](CO)C(=O)N[C@H](C(=O)N[C@@H](CCC(=O)O)C(=O)N[C@H](C(=O)NCC(=O)N[C@@H](CO)C(=O)N[C@@H](CO)C(=O)N[C@H](C(=O)N1CCC[C@H]1C(N)=O)[C@@H](C)O)C(C)C)[C@@H](C)O)N(C)C(=O)[C@H](C)NC(=O)CN(C)C(=O)[C@H](Cc1ccccc1)NC(=O)[C@H](CO)NC(=O)[C@H](CO)NC(=O)[C@H](CCCNC(=N)N)NC(=O)[C@@H](NC(=O)[C@H](CC(C)C)NC(=O)[C@H](Cc1ccccc1)NC(=O)[C@H](Cc1c[nH]cn1)NC(=O)[C@H](C)NC(=O)[C@H](CC(C)C)NC(=O)[C@H](CCCNC(=N)N)NC(=O)[C@H](CCC(=O)O)NC(=O)[C@@H](NC(=O)[C@H](C)NC(=O)[C@@H]1CSSC[C@H](NC(=O)[C@H](CCCNC(=N)N)NC(=O)CC[C@H](NC(=O)CCCCCCCCCCCCCCCCCCC(=O)O)C(=O)O)C(=O)NCC(=O)N[C@@H]([C@@H](C)O)C(=O)N[C@@H](C)C(=O)N[C@@H]([C@@H](C)O)C(=O)N1)[C@@H](C)O)C(C)C) [[19CD]-isoGlu-R-C( )-GTAT-C( )-ATERLAHFLVRSSF-Gly(Me)-A-Ile(Me)-LSSTEVGSSTP-NH2 (Compd. 38)]
